The Kd is a measure of binding affinity in units of concentration. A low value points to higher affinity. In general, stoichiometry N refers to the number of molecules, sites or subunits per partner or assembly.

No end group written: not given here. *: point of attachment. G0F = octasaccharide N-glycan with core α-1,6-fucose, CC(=O)N[C@@H]1[C@@H](O)[C@H](O[C@@H]2O[C@H](CO)[C@@H](O[C@@H]3O[C@H](CO[C@H]4O[C@H](CO)[C@@H](O)[C@H](O)[C@@H]4O[C@@H]4O[C@H](CO)[C@@H](O)[C@H](O)[C@H]4NC(C)=O)[C@@H](O)[C@H](O[C@H]4O[C@H](CO)[C@@H](O)[C@H](O)[C@@H]4O[C@@H]4O[C@H](CO)[C@@H](O)[C@H](O)[C@H]4NC(C)=O)[C@@H]3O)[C@H](O)[C@H]2NC(C)=O)[C@@H](CO[C@@H]2O[C@@H](C)[C@@H](O)[C@@H](O)[C@@H]2O)O[C@H]1*

For this assay, the target named is anti-fuc-PSA mAb 2E9 (rabbit). Put plainly: SPR; Biacore 8k, 37 °C, HBS-ET (10 mM HEPES pH 7.4, 150 mM NaCl, 3 mM EDTA, 0.005% Tween 20) with 1 mg/mL carboxymethyl dextran; rabbit IgG from culture supernatant captured by goat anti-rabbit Fcγ on CM5; peptides injected at 0, 11, 33, 100, 300, 900 nM; Langmuir fit.
Sequence of anti-fuc-PSA mAb 2E9 (rabbit) (heavy, as listed by the source, chain 1 of 2): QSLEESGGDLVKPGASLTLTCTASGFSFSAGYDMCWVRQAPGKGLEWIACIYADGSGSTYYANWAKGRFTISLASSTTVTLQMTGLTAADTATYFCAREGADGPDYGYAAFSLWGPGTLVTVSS
Sequence of anti-fuc-PSA mAb 2E9 (rabbit) (light, as listed by the source, chain 2 of 2): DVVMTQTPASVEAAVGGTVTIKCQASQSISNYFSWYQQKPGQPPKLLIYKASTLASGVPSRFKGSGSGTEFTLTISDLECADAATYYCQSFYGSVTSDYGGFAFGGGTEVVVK

The molecule IRN(G0F)KSVILLGRHS [PSA(67–79)-G0F] yielded a BL (binding late) of 27 RU, a Kd of 0.6 nM, a stoichiometry N of 2 and a t1/2 (antibody–antigen complex half-life) of 10 min.

The values above are taken from paper PMC11254934.
